Test results: doi:10.1101/2021.04.27.441644

Biological target: filamentous actin (F-actin) (rabbit) (UniProt P68135)
Assay: co-sedimentation

CLIP-170 N-terminal fragment H2 (H2 1-481), sequence (P30622 1-481): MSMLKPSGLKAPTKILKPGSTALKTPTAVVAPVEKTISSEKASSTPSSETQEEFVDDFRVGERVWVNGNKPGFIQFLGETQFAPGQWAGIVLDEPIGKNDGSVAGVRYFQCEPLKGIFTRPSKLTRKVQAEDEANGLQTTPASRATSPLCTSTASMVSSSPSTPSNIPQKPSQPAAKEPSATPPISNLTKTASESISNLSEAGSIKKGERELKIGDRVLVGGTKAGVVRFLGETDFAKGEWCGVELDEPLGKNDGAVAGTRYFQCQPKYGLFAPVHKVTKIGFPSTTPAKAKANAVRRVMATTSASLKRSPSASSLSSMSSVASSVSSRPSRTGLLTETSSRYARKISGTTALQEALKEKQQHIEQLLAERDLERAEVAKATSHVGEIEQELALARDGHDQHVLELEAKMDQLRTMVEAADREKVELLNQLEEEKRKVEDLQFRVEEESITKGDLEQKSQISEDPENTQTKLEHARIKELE

Kd: 10 µM
percent of H2 in the pellet with F-actin (self-pelleting subtracted): 26%
Substance: CLIP-170 N-terminal fragment H2 (H2 1-481) (from UniProt P30622 1-481) (domain or fragment)
